Measured values taken from the supplement of paper PMC6379048.

How the values were obtained:
Test in all cases: EC50 of free RNA motif oligo competing protein binding to immobilised probe
[1] = biological target: SLIRP (UniProt Q9GZT3)
Outline: (§1)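 HEK293-FT lysate (2.5 mg protein/well) was pre-incubated 1 h at 4°C with free RNA oligos (0 nM to 30 μM), then 30 min at 4°C with the same 5′-amino-C6 oligos coupled to NHS-Sepharose beads. Bound proteins were quantified by label-free LC-MS/MS in three biological replicates and two independent experiments, and normalised to the water control. EC50 came from a four-parameter log-logistic fit; Kd is EC50 times a protein-dependent depletion factor.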

[2] = biological target: T1, HNRNPDL (UniProt O14979)
T1 sequence: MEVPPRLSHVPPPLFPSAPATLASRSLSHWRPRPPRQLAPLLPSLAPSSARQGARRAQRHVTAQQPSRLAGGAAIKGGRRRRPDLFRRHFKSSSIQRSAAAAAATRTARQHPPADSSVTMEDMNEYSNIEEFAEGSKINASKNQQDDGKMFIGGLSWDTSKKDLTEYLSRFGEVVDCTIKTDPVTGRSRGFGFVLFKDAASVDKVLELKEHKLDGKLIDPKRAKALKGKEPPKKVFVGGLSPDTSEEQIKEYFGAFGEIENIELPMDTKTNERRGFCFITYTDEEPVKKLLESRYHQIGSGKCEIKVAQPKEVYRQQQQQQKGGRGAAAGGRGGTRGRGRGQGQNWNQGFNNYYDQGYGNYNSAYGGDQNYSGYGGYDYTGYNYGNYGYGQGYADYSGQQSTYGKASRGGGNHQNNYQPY
Outline: as §1

[3] = biological target: T2, CPSF2 (UniProt Q9P2I0)
T2 sequence: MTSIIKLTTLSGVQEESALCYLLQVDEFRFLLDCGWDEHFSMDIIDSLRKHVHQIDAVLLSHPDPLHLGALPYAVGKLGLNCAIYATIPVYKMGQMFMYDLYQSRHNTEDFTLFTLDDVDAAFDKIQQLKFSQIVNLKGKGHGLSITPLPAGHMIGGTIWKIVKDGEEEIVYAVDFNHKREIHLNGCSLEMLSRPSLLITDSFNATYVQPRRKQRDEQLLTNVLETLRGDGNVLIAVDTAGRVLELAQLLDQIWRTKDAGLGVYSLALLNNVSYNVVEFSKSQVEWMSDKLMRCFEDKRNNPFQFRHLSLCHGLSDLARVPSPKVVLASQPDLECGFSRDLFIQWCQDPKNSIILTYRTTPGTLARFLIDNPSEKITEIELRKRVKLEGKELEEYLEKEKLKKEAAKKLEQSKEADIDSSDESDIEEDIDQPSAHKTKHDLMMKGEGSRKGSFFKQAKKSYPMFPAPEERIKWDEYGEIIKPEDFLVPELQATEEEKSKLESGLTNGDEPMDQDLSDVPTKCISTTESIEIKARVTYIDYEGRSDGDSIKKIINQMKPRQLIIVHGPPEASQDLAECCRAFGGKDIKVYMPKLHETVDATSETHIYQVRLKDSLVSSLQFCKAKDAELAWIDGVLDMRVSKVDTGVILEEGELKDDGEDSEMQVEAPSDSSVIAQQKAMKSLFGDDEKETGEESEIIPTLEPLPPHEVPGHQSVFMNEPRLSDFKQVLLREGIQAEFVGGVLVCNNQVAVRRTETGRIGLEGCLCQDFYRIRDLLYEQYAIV
Outline: as §1

[4] = biological target: TOE1 (UniProt Q96GM8)
Outline: as §1

[5] = biological target: T3, WDR33 (UniProt Q9C0J8)
T3 sequence: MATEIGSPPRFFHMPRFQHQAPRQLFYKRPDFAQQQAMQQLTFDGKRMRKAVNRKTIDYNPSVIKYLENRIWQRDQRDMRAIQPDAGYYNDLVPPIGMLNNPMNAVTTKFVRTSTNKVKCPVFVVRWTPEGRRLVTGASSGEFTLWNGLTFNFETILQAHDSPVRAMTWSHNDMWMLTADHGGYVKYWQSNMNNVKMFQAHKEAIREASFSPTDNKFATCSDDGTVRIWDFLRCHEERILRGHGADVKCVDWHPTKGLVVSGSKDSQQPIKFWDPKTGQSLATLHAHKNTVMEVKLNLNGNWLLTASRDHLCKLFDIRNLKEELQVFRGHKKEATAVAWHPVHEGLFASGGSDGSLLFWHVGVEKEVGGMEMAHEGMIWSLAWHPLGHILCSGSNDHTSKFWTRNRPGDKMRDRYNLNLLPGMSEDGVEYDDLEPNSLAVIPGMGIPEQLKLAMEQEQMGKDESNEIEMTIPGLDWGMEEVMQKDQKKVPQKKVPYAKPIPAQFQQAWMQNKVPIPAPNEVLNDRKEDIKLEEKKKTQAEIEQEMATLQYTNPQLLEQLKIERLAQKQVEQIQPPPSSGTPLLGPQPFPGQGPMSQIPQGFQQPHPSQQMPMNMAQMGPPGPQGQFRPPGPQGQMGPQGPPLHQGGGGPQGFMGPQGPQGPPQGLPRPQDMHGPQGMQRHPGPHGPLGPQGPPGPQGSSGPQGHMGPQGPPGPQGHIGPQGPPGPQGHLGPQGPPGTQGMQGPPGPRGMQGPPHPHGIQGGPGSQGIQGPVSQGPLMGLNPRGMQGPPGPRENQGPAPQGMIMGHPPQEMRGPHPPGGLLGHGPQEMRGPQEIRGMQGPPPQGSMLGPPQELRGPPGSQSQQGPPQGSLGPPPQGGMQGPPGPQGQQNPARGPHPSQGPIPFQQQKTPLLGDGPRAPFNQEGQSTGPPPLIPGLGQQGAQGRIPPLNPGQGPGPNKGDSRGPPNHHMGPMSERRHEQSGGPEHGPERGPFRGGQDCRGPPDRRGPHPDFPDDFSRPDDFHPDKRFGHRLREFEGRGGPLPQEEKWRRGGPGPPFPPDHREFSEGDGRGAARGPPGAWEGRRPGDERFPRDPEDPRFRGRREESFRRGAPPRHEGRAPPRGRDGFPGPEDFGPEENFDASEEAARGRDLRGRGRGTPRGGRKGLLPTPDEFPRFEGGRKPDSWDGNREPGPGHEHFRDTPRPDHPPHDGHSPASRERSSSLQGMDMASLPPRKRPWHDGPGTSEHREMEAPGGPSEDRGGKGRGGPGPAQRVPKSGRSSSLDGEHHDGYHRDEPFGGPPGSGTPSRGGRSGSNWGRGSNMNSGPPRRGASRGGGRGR
Outline: as §1

Sequence	EC50 [1] [nM]	EC50 [2] [nM]	EC50 [3] [nM]	EC50 [4] [nM]	EC50 [5] [nM]
CUGUCCU	1530	–	–	–	–
AAUAAA	1580	2090	68.3	2110	64.6
UAUUUAU	–	3480	1510	1420	960
